Source: the supplement of paper PMC10724198
± gives the standard deviation of the averaged measurements.

tested on: Saccharomyces cerevisiae; experiment: protein stability index of tFT-peptide fusion (C-terminal peptide) (PSI (0-1 scale)); higher = more stable (slower turnover); details: genetic background: wild type; temperature: 30 C
Method: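 Multiplexed protein stability (MPS) profiling in S. cerevisiae. Random 12-aa peptides (tFT-X12 library) are fused to the C-terminus of a sfGFP-mCherry tandem fluorescent timer, after mCherry and a GGGS linker. Cells are FACS-sorted into 8 mCherry/sfGFP bins and deep-sequenced. The protein stability index (PSI) is the read-weighted bin average, scaled from 0 (unstable) to 1 (stable). Only peptides with >10 reads are reported; cells were grown at 30 °C in SC-His with glucose.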
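Further: PSI is a weighted mean of sequencing reads over stability bins, variants kept only with over 10 reads, mCherry proximal and sfGFP distal, peptide attached via GGGS linker.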

In order of rising protein stability index:
1. DLATSVVYIVTV  0.506 ± 0.0077
2. ECFRWQRRLHYD  0.533 ± 0.024
3. EENLLYLLYVEC  0.544 ± 0.016
4. EARFLWLTFLFG  0.546 ± 0.068
5. DLFLTSSCPCLC  0.55106 ± 4.5e-05
6. EEKRPWRRELLS  0.562 ± 0.025
7. DSMGKVLLTCAN  0.581 ± 0.0094
8. DSCQALIWLVFT  0.586 ± 0.021
9. EGRPEERETTGH  0.587 ± 0.057
10. DTCWHELILAFS  0.592 ± 0.087
11. DIRKAEISANFC  0.59434 ± 2.4e-05
12. DWLAFSYYFSVV  0.599 ± 0.041
13. DRSLRLGSLTSG  0.6 ± 0.017
14. DIKKSTKGQNQQ  0.602 ± 0.025
15. DSLTNAELVFAC  0.607 ± 0.0068
16. DMAVYLVSVSRV  0.609 ± 0.053
17. DMCLSVIEQTAC  0.6123 ± 0.0028
18. EAGGRWEVSCQA  0.6133 ± 0.0017
19. DCIAFVPRDRRS  0.614 ± 0.012
20. DLPSSPCSYFRR  0.616 ± 0.034
21. DPRHDNRYPRVR  0.617 ± 0.16
22. DVAPPFLSFFVV  0.62 ± 0.011
23. DQIYEKQKIPST  0.621 ± 0.0079
24. EFVGSCPLCNTF  0.622 ± 0.015
25. DCREALLAKVYL  0.627 ± 0.07
26. DILCRILLRPKG  0.63 ± 0.031
27. DSPTGLKFTQSL  0.634 ± 0.1
28. DREVGQGRLTEE  0.6359 ± 0.0018
29. DWGRRGGALAVI  0.641 ± 0.012
30. EEMTVKKERKRI  0.641 ± 0.051
31. DEVRDTSGGTWA  0.642 ± 0.02
32. CVLLGSTIPAIV  0.645 ± 0.043
33. EAEKTERCVIKG  0.645 ± 0.027
34. EHGEFLEGARGV  0.645 ± 0.0075
35. DRRARTDEKKKK  0.646 ± 0.01
36. DCRLPSLPPCVA  0.648 ± 0.059
37. DSETLLSKEWKQ  0.651 ± 0.11
38. DSSRANRCISDR  0.654 ± 0.046
39. DVFVFHVLKKYP  0.654 ± 0.025
40. EGGKRGGTPITK  0.654 ± 0.025
41. DFPLISAHNTVC  0.655 ± 0.033
42. EFPSGCSSVIVA  0.655 ± 0.049
43. DPVVSQLSSVPA  0.656 ± 0.041
44. EGRMEAGVEGNS  0.657 ± 0.053
45. DICCGLCGLLPR  0.658 ± 0.079
46. DREGIELHKNKD  0.658 ± 0.0072
47. EERENKKKLDQT  0.659 ± 0.029
48. DGTLTAKVIETF  0.66 ± 0.058
49. DKPVDTRPGSPG  0.66 ± 0.031
50. DLVRGGNCVYGV  0.66 ± 0.032
51. EGGIKGKKVRTW  0.66 ± 0.0087
52. DITQSRIHMTNI  0.661 ± 0.055
53. EEKQLNKIKRKI  0.662 ± 0.059
54. DIRFSAARRPTG  0.6627 ± 0.0053
55. DAGLCGCCGVIG  0.666 ± 0.057
56. DFVESKVCSCSV  0.666 ± 0.01
57. DPTWIKKRPSIP  0.666 ± 0.044
58. EDKKKKTKANDT  0.669 ± 0.028
59. DLSAGPPFLLIR  0.6717 ± 0.0038
60. DDTSIVRRMQSP  0.674 ± 0.014
61. CWVRGLEYCSIW  0.676 ± 0.028
62. DPLLYLCLGSQC  0.676 ± 0.017
63. DRGFSVGGGWGW  0.676 ± 0.066
64. DRPACVAHKLFS  0.677 ± 0.0073
65. EGHTRLPSPSPS  0.677 ± 0.009
66. EDACARFVRLFL  0.678 ± 0.051
67. DLRVSLLSHLSL  0.679 ± 0.11
68. EGASLRWARLRI  0.679 ± 0.037
69. EGGRRHSVGEQE  0.679 ± 0.01
70. DVLDCTLVEQGA  0.68 ± 0.035
71. DSRPLASAVRLS  0.681 ± 0.017
72. DCYSKLQSRKCG  0.682 ± 0.018
73. DLPDGRRFIVIG  0.682 ± 0.08
74. DGGKRKQDSQKK  0.683 ± 0.034
75. DKYKIDKKSKRK  0.683 ± 0.059
76. DLDVVGEGSAGT  0.683 ± 0.046
77. EGDGVGCWWELW  0.683 ± 0.033
78. EGGWRYNRNGPN  0.687 ± 0.025
79. DGVGRLADGRGI  0.688 ± 0.013
80. DTGLGSVVFVVF  0.688 ± 0.036
81. EGYTPETPCYQK  0.688 ± 0.029
82. DALGRSTKGGHW  0.689 ± 0.024
83. DGRLNVCCYPSC  0.689 ± 0.15
84. DLSAGKWSRSSD  0.689 ± 0.023
85. DMSQKSENKKLI  0.689 ± 0.011
86. DSSFLPHLRLAP  0.689 ± 0.053
87. DGSSESRSGTGK  0.69 ± 0.057
88. DSPPRATFSAPR  0.69 ± 0.036
89. DTLFNRFLHTSI  0.69 ± 0.046
90. EGEVAGRWCGRG  0.69 ± 0.013
91. DLVGSWMCGPDL  0.691 ± 0.028
92. DHGVRASSRATG  0.692 ± 0.015
93. DFMGLRCSARKA  0.693 ± 0.016
94. DGLGSSGCCLCW  0.693 ± 0.038
95. EGTASGSSVRLE  0.693 ± 0.049
96. EAVVVLVSRFGL  0.695 ± 0.044
97. DRKWSPGSGVVD  0.696 ± 0.051
98. CYGAYLVSQWGS  0.697 ± 0.028
99. DQLGARSGELLR  0.697 ± 0.063
100. EGHSPVQNVIEQ  0.698 ± 0.013
101. CVLAPPHRRAPS  0.699 ± 0.031
102. DGPRPPRPSPVP  0.699 ± 0.04
103. DKSHRKNKKKRN  0.699 ± 0.0074
104. EFVGKDRWVGGL  0.699 ± 0.053
105. DVVFVARGRAND  0.7002 ± 0.0037
106. EGAGGVEGAAWG  0.7 ± 0.018
107. EGRGKGKKKKTH  0.7 ± 0.036
108. DKNDGNHKKKKN  0.702 ± 0.017
109. DLTGKGCIYMER  0.702 ± 0.034
110. EARGPGPVGGGT  0.702 ± 0.085
111. EERELGVVWGEV  0.702 ± 0.024
112. DKKEEEKKSTKH  0.70302 ± 0.00026
113. DTEYVFLYSSQE  0.7029 ± 0.0051
114. EETGWGVVWVVR  0.703 ± 0.037
115. EGDRWAGEVVRG  0.705 ± 0.011
116. EGYEATYLGVFV  0.706 ± 0.031
117. EGIYLTVGTVDQ  0.707 ± 0.049
118. DGPGFNVCLRCK  0.708 ± 0.017
119. DHHGGTEPHRVP  0.7079 ± 0.0052
120. DAVRRSSLSLAT  0.711 ± 0.16
121. EDCICPLNWFTA  0.711 ± 0.013
122. DFVSQFSFQFGC  0.713 ± 0.066
123. DRGSLVASGGGG  0.713 ± 0.015
124. DIGGTDYDPAIS  0.7138 ± 0.0017
125. DGVWVRCGTLGF  0.715 ± 0.078
126. DSPLAGALTEVD  0.715 ± 0.04
127. DGPWGGVRAGEV  0.717 ± 0.063
128. DPLVDLCGPLSL  0.717 ± 0.077
129. EDIIRPWSMFQE  0.718 ± 0.043
130. DACWWVDDGGVV  0.719 ± 0.051
131. DSAVTPPTTCLP  0.719 ± 0.028
132. DARGTVVEIRPG  0.72 ± 0.19
133. DRWGGRGDYRCI  0.72 ± 0.019
134. EFKGRHEETTKS  0.72 ± 0.08
135. DLPDLQPACPRF  0.722 ± 0.019
136. DHCRTQHLGLEM  0.725 ± 0.015
137. DSFSEFDSSPVI  0.727 ± 0.03
138. ECSGGGCGQRVG  0.733 ± 0.056
139. DGVGVPGCGRVG  0.734 ± 0.075
140. DGKGLRATWQWS  0.737 ± 0.037
141. EDLFELPNSNFS  0.73653 ± 0.00022
142. DLGLEVVSFLKF  0.741 ± 0.068
143. DVRPVWGMAGSE  0.742 ± 0.12
144. DSFLLSSKICWT  0.745 ± 0.0069
145. DGTSKDSKWYMN  0.747 ± 0.088
146. DRLGGVSQVNIQ  0.751 ± 0.042
147. DIHLSRQKTRIL  0.752 ± 0.17
148. DPPDPASIHLSF  0.752 ± 0.0096
149. DIGGLGYCDCVK  0.758 ± 0.054
150. DTFVFSWGVGWG  0.76 ± 0.041
151. DQAWYFVRLAGD  0.766 ± 0.2
152. EALLWWGAWGVV  0.769 ± 0.02
153. DCFSFVASSSFC  0.7696 ± 0.004
154. EAKKKRIDKKYE  0.776 ± 0.068
155. EFFSFPLTPYAL  0.818 ± 0.0035
